From PMC5461540, “MOB1 Mediated Phospho-recognition in the Core Mammalian Hippo Pathway” (Molecular & Cellular Proteomics : MCP, 2017)

B1: MOB1A wild-type (natural protein)
chain: SFLFSSRSSKTFKPKKNIPEGSHQYELLKHAEATLGSGNLRQAVMLPEGEDLNEWIAVNTVDFFNQINMLYGTITEFCTEASCPVMSAGPRYEYHWADGTNIKKPIKCSAPKYIDYLMTWVQDQLDDETLFPSKIGVPFPKNFMSVAKTILKRLFRVYAHIYHQHFDSVMQLQEEAHLNTSFKHFIFFVQEFNLIDRRELAPLQELIEKLGSKDR
B2: MOB4 (tags cleaved) (natural protein)
chain: VMAEGTAVLRRNRPGTKAQDFYNWPDESFDEMDSTLAVQQYIQQNIRADCSNIDKILEPPEGQDEGVWKYEHLRQFCLELNGLAVKLQSECHPDTCTQMTATEQWIFLCAAHKTPKECPAIDYTRHTLDGAACLLNSNKYFPSRVSIKESSVAKLGSVCRRIYRIFSHAYFHHRQIFDEYENETFLCHRFTKFVMKYNLMSKDNLIVPILEEEVQNSVSGESEA

Experiments:
[1] = target: FITC labeled phosphorylated MST1 T353 peptide (human); assay: fluorescence polarisation; 20 nM FITC-labelled peptide, MOB protein titrated (12 points, triplicate); 25 mM HEPES pH 7.5, 150 mM NaCl, 2 mM DTT, 1 mg/ml BSA; one site-specific binding fit
[2] = target: FITC labeled phosphorylated MST1 T367 peptide (human); assay: as above

Binder	Kd [1] [µM]	Kd [2] [µM]
B1	0.28	0.68
B2	–	12.2
